# In patent US20110237779A1 (Genentech, published 2011):
# Positions count from the first letter of the chain named. Names may count otherwise.
# B1: D3 direct hypervariable region graft on the acceptor human consensus framework (Fab displayed on phage) (Fab, V domains shown)
# VH: EVQLVESGGGLVQPGGSLRLSCAASGFNIKDYYMHWVRQAPGKGLEWVGWIDPENGNTIYDPKFQDRFTISADTSKNTAYLQMNSLRAEDTAVYYCARDTAAYFDYWGQGTLVTVSS
# VL: DIQMTQSPSSLSASVGDRVTITCKASRDIKSYLSWYQQKPGKAPKLLIYYATSLADGVPSRFSGSGSGTDFTLTISSLQPEDFATYYCLQHGESPFTFGQGTKVEIK
# notes: Monovalent Fab-g3 phage display: light chain, and VH-CH1 followed by the minor phage coat protein P3; Kabat numbering; No framework changes; also called D3 grafted variant; D3 graft
# B2: D3 library clone, CDR-L1 KGQRVLNSWLS (Fab, V domains shown)
# VH: B1 VH
# VL: B1 VL with A25G, S26Q, D28V, I29L, K30N, Y32W
# notes: Changes against the D3 direct graft (Kabat): VL A25G, S26Q, D28V, I29L, K30N, Y32W; copies: 1 + 1
# B3: D3 library clone, CDR-L1 NASLVINRWLS (Fab, V domains shown)
# VH: B1 VH
# VL: B1 VL with K24N, R27L, D28V, K30N, S31R, Y32W
# notes: Changes against the D3 direct graft (Kabat): VL K24N, R27L, D28V, K30N, S31R, Y32W; copies: 1 + 1
# B4: D3 library clone, CDR-L3 LSDGSSPFT (Fab, V domains shown)
# VH: B1 VH
# VL: B1 VL with Q90S, H91D, E93S
# notes: Changes against the D3 direct graft (Kabat): VL Q90S, H91D, E93S; copies: 1 + 1
# B5: D3 library clone, CDR-L2 RGTSLFE, VL K24E, D28V, Y32F (Fab, V domains shown)
# VH: B1 VH
# VL: B1 VL with K24E, D28V, Y32F, Y50R, A51G, A55F, D56E
# notes: Changes against the D3 direct graft (Kabat): VL K24E, D28V, Y32F, Y50R, A51G, A55F, D56E; copies: 1 + 1
# B6: D3 library clone, CDR-L2 YETGPTD (Fab, V domains shown)
# VH: B1 VH
# VL: B1 VL with A51E, S53G, L54P, A55T
# notes: Changes against the D3 direct graft (Kabat): VL A51E, S53G, L54P, A55T; copies: 1 + 1
# B7: D3 library clone, CDR-L3 LQDGESPFT, I58F, N82aI, D95N (Fab, V domains shown)
# VH: B1 VH with I59F, N84I, D99N
# VL: B1 VL with H91D
# notes: Changes against the D3 direct graft (Kabat): VL H91D; VH I58F, N82aI, D95N; copies: 1 + 1
# B8: D3 library clone, CDR-L2 YTAGPSD (Fab, V domains shown)
# VH: B1 VH
# VL: B1 VL with A51T, T52A, S53G, L54P, A55S
# notes: Changes against the D3 direct graft (Kabat): VL A51T, T52A, S53G, L54P, A55S; copies: 1 + 1
# B9: D3 library clone, CDR-L2 YEGSGKR (Fab, V domains shown)
# VH: B1 VH
# VL: B1 VL with A51E, T52G, L54G, A55K, D56R
# notes: Changes against the D3 direct graft (Kabat): VL A51E, T52G, L54G, A55K, D56R; Siblings 8; copies: 1 + 1
# B10: D3 library clone, CDR-L2 YVPWTAD (Fab, V domains shown)
# VH: B1 VH
# VL: B1 VL with A51V, T52P, S53W, L54T
# notes: Changes against the D3 direct graft (Kabat): VL A51V, T52P, S53W, L54T; copies: 1 + 1
# B11: D3 library clone, CDR-L2 YETGEPE (Fab, V domains shown)
# VH: B1 VH
# VL: B1 VL with A51E, S53G, L54E, A55P, D56E
# notes: Changes against the D3 direct graft (Kabat): VL A51E, S53G, L54E, A55P, D56E; copies: 1 + 1
# B12: D3 library clone, CDR-L2 YAPGLAD (Fab, V domains shown)
# VH: B1 VH
# VL: B1 VL with T52P, S53G
# notes: Changes against the D3 direct graft (Kabat): VL T52P, S53G; Siblings 2; copies: 1 + 1
# B13: D3 library clone, CDR-L2 YESGPAD (Fab, V domains shown)
# VH: B1 VH
# VL: B1 VL with A51E, T52S, S53G, L54P
# notes: Changes against the D3 direct graft (Kabat): VL A51E, T52S, S53G, L54P; Siblings 2; copies: 1 + 1
# B14: D3 library clone, CDR-L2 YAPGPAD (Fab, V domains shown)
# VH: B1 VH
# VL: B1 VL with T52P, S53G, L54P
# notes: Changes against the D3 direct graft (Kabat): VL T52P, S53G, L54P; copies: 1 + 1
# B15: D3 library clone, CDR-L2 DAIGLAD (Fab, V domains shown)
# VH: B1 VH
# VL: B1 VL with Y50D, T52I, S53G
# notes: Changes against the D3 direct graft (Kabat): VL Y50D, T52I, S53G; copies: 1 + 1
# B16: D3 library clone, CDR-L3 LQDGESPFT (Fab, V domains shown)
# VH: B1 VH
# VL: B1 VL with H91D
# notes: Change against the D3 direct graft (Kabat): VL H91D; Siblings 5; copies: 1 + 1
# B17: D3 library clone, CDR-L2 YETGWAE (Fab, V domains shown)
# VH: B1 VH
# VL: B1 VL with A51E, S53G, L54W, D56E
# notes: Changes against the D3 direct graft (Kabat): VL A51E, S53G, L54W, D56E; copies: 1 + 1
# B18: D3 library clone, CDR-L1 KGSGYIKHFVS (Fab, V domains shown)
# VH: B1 VH
# VL: B1 VL with A25G, R27G, D28Y, S31H, Y32F, L33V
# notes: Changes against the D3 direct graft (Kabat): VL A25G, R27G, D28Y, S31H, Y32F, L33V; Siblings 2; copies: 1 + 1
# B19: D3 library clone, CDR-L2 YEPGLAD (Fab, V domains shown)
# VH: B1 VH
# VL: B1 VL with A51E, T52P, S53G
# notes: Changes against the D3 direct graft (Kabat): VL A51E, T52P, S53G; copies: 1 + 1
# B20: D3 library clone, CDR-L2 YAPSLAD (Fab, V domains shown)
# VH: B1 VH
# VL: B1 VL with T52P
# notes: Change against the D3 direct graft (Kabat): VL T52P; copies: 1 + 1
# B21: D3 library clone, CDR-L2 YAPRRAR (Fab, V domains shown)
# VH: B1 VH
# VL: B1 VL with T52P, S53R, L54R, D56R
# notes: Changes against the D3 direct graft (Kabat): VL T52P, S53R, L54R, D56R; Siblings 2; copies: 1 + 1
# B22: D3 library clone, CDR-L2 YTTGPVD (Fab, V domains shown)
# VH: B1 VH
# VL: B1 VL with A51T, S53G, L54P, A55V
# notes: Changes against the D3 direct graft (Kabat): VL A51T, S53G, L54P, A55V; copies: 1 + 1
# B23: D3 library clone, CDR-L2 YATGETD (Fab, V domains shown)
# VH: B1 VH
# VL: B1 VL with S53G, L54E, A55T
# notes: Changes against the D3 direct graft (Kabat): VL S53G, L54E, A55T; Siblings 2; copies: 1 + 1
# B24: D3 library clone, CDR-L1 KGSRDTTSFVS (Fab, V domains shown)
# VH: B1 VH
# VL: B1 VL with A25G, I29T, K30T, Y32F, L33V
# notes: Changes against the D3 direct graft (Kabat): VL A25G, I29T, K30T, Y32F, L33V; copies: 1 + 1
# Target: T1, human tissue factor (human, UniProt P13726 33-251, limits assumed)
# T1 construct: construct not described; also called TF
# Assay: phage ELISA, Fab on phage, competition with antigen in solution
row,Binder,IC50
1,B1,20 nM

# Target: T1, human tissue factor
# Assay: phage ELISA, solution competition: Fab-phage incubated with serially diluted TF, unbound phage captured on TF-coated wells; IC50 used as affinity estimate
row,Binder,IC50
1,B1,19 nM
2,B2,21 nM
3,B3,16 nM
4,B4,15 nM
5,B5,10 nM
6,B6,9 nM
7,B7,8 nM
8,B8,16 nM
9,B9,12 nM
10,B10,10 nM
11,B11,11 nM
12,B12,8 nM
13,B13,8 nM
14,B14,10 nM
15,B15,17 nM
16,B16,13 nM
17,B17,10 nM
18,B18,9 nM
19,B19,7 nM
20,B20,4 nM
21,B21,11 nM
22,B22,21 nM
23,B23,16 nM
24,B24,19 nM
